Experimental data published in IntAct's records for PubMed 26235546.

What was measured:
[1] = molecular target: pspf_ecoli pspF (UniProt P37344)
[2] = molecular target: pspf_ecoli pspF (UniProt P37344); remark: listed apart in the source

pspf_ecoli pspF, sequence (P37344 whole entry): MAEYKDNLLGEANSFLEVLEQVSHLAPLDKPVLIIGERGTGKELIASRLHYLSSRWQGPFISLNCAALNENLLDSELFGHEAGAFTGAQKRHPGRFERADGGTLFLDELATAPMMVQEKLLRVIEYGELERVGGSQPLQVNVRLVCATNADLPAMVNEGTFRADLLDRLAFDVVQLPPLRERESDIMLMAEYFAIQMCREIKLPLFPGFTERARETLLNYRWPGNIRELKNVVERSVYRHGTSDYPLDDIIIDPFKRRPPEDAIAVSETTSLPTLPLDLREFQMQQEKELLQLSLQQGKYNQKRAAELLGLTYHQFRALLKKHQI

Row | Substance | effect of a mutation on the interaction [1] | effect of a mutation on the interaction [2]
1 | Phage shock protein A (Escherichia coli (strain K12)) (from UniProt P0AFM6) E37A | with no effect | decreasing interaction strength
2 | Phage shock protein A (Escherichia coli (strain K12)) (from UniProt P0AFM6) R59E | – | with no effect
